Experiments:
[1] = target: T1, Anti-CD28 Fab (SEQ ID NOs: 202, 203); assay: phage ELISA on captured Fab, wells pre-incubated with CD28 antigen (competitor: CD28);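 note: bound clonal phage detected with an HRP-linked anti-M13 antibody, compared against wells that received blocking buffer alone without CD28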
T1 construct: biotinylated and captured on neutravidin coated plates in the phage ELISA
Protocol: (§1) Clonal phage were harvested as crude supernatants and screened via standard ELISAs. […] Prior to the addition of clonal phage, wells were incubated with blocking buffer and CD28 antigen or blocking buffer alone. Without washing or aspirating, clonal phage supernatants were then added to the wells and incubated for a short time. Wells were then washed followed by detection of bound phage using a horse radish conjugated anti-M13 antibody.

[2] = target: T1, Anti-CD28 Fab (SEQ ID NOs: 202, 203); assay: phage ELISA on captured biotinylated Fab;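 note: wells preblocked with or without CD28 antigen, then clonal phage supernatant added briefly, washed, and bound phage read out by ELISA using HRP-linked anti-M13 antibody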
Protocol: as §1

[3] = target: T2, anti-CD28 Fab (SEQ ID NOs: 202, 203); assay: phage binding ELISA on captured biotinylated Fab;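 note: clonal phage supernatants added to wells preincubated with CD28 antigen or blocking buffer only, bound phage detected by ELISA with horseradish-conjugated anti-M13 antibody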
T2 construct: biotinylated and captured on neutravidin coated plates in the phage ELISA
T2 sequence (VH, as listed by the source, chain 1 of 2): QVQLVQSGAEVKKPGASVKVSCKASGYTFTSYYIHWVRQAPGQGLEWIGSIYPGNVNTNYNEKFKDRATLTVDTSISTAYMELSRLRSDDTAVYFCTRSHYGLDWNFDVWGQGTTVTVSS
T2 sequence (VL, as listed by the source, chain 2 of 2): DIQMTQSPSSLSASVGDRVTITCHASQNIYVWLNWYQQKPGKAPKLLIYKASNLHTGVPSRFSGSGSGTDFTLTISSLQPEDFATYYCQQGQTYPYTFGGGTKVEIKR
Protocol: After panning, phage infected bacteria were plated out and colonies picked into 96 well blocks. Clonal phage was then amplified and separated from bacterial cells via centrifugation.
Clonal phage were harvested as crude supernatants and screened via standard ELISAs. […] Prior to the addition of clonal phage, wells were incubated with blocking buffer and CD28 antigen or blocking buffer alone. Without washing or aspirating, clonal phage supernatants were then added to the wells and incubated for a short time. Wells were then washed followed by detection of bound phage using a horse radish conjugated anti-M13 antibody. Clonal phage of interest were then sent for sequence analysis.

T1 sequence (VH, as listed by the source, chain 1 of 2): as the sequence (VH, as listed by the source, chain 1 of 2) above
T1 sequence (VL, as listed by the source, chain 2 of 2): as the sequence (VL, as listed by the source, chain 2 of 2) above

Binder	Anti-CD28 Fab signal in the presence of CD28 [1]	Anti-CD28 Fab signal [2]	Anti-CD28 Fab (SEQ ID NOs: 202, 203) signal [3]
YCDGHTQEYIAKCL [Phage-167]	0.06	2.17	
YCDGHSQEYIAKCL [Phage-265]	0.07	1.99	
YCDGHSIEYRWKCL [Phage-162]	0.06	2.18	
YCDGHKAEYMDKCL [Phage-150]	0.07	2.2	
YCAGHLPEYMQKCL [Phage-182]	0.09	2.15	
YCAGHLPEYFLKCL [Phage-156]	0.08	2.19	
YCDGHLGIYMWKCL [Phage-183]	0.08	2.14	
YCDGHLGIYMTKCL [Phage-268]	0.08	1.98	
YCDGHLEEYKQKCL [Phage-165]	0.08	2.18	
YCDGHAVEYMAKCL [Phage-161]	0.1	2.18	
YCDGHLPEYIEKCL [Phage-159]	0.07	2.19	
YCAGHLPEYIDKCL [Phage-219]	0.08	2.07	
YCAGHMPEYIDKCL [Phage-296]	0.06	1.92	
YCAGHLPEYISKCL [Phage-188]	0.08	2.14	
YCDGHSPLYIWKCL [Phage-157]	0.09	2.19	
YCDGHSPDYIWKCL [Phage-289]	0.1	1.93	
YCDGHQPEYMAKCL [Phage-187]	0.07	2.14	
YCDGHIPIYMSKCL [Phage-189]	0.08	2.13	
YCDGHSPIYMSKCL [Phage-260]	0.09	2	
YCSGHLPEYMSKCL [Phage-245]	0.09	2.03	
YCSGHLPEYMEKCL [Phage-210]	0.09	2.09	
YCEGHLPEYMSKCL [Phage-181]	0.07	2.15	
TCSAGATYEWPWCM [Phage-978]			1.97
YCDGHMPEYIAKCL [Phage-154]	0.08	2.19	
YCDGHLPQYKAKCL [Phage-160]	0.09	2.19	
YCDGHSDEYMAKCL [Phage-185]	0.07	2.14	
YCEGHSAEYMAKCL [Phage-184]	0.06	2.14	

Binder	Anti-CD28 Fab signal in the presence of CD28 [1]	Anti-CD28 Fab signal [2]	Anti-CD28 Fab (SEQ ID NOs: 202, 203) signal [3]
YCEGHSAEYMNKCL [Phage-226]	0.07	2.06	
YCDGHSSEYMWKCL [Phage-244]	0.06	2.03	
YCDGHASEYMWKCL [Phage-286]	0.06	1.94	
YCDGHSAEYMSKCL [Phage-204]	0.06	2.1	
YCEGHSMEYMAKCL [Phage-295]	0.07	1.92	
YCDGHSAEYMMKCL [Phage-192]	0.08	2.12	
YCDGHASEYMMKCL [Phage-237]	0.06	2.05	
YCEGHSAEYMWKCL [Phage-213]	0.09	2.08	
YCDGHSPEYMTKCL [Phage-294]	0.07	1.93	
YCEGHSLEYIGKCL [Phage-186]	0.06	2.14	
YCDGHAPEYIYKCL [Phage-164]	0.06	2.18	
YCEGHAEEYMQKCL [Phage-163]	0.06	2.18	
YCDGHLPEYLPKCL [Phage-153]	0.09	2.19	
YCDGHLPEYLSKCL [Phage-155]	0.07	2.19	
YCMGHLPQYMEKCL [Phage-212]	0.08	2.08	
YCMGHLPQYMQKCL [Phage-166]	0.11	2.18	
YCVGHLPQYMEKCL [Phage-267]	0.08	1.98	
MCSAGANYPWPWCL [Phage-979]			1.97
YCEGHLPQYLAKCL [Phage-190]	0.1	2.12	
YCAGHLPLYMEKCL [Phage-191]	0.06	2.12	
YCDGHAPEYMLKCL [Phage-151]	0.07	2.2	
YCDGHMPEYMEKCL [Phage-292]	0.09	1.93	
YCDGHAPDYMLKCL [Phage-152]	0.09	2.2	
YCDGHAPQYMLKCL [Phage-194]	0.09	2.12	
YCDGHMPEYMLKCL [Phage-199]	0.09	2.11	
YCMGHAPEYMEKCL [Phage-290]	0.07	1.93	
YCDGHAPQYMGKCL [Phage-227]	0.08	2.06	
